Patent publication US20220135687A1 (NANJING LEGEND BIOTECH, published 2022)
Read-outs that look alike come from different tables or passages of the source.

B1: 21D1F4D4 (antibody, V domains shown)
VH: QVQLQQPGAEVVRPGASVKLSCKASGYTFTNYWISWVKQRPGQGLEWIGNIYPSDSYTNYNQNFKDKATLTVDKSSSTAYMQLSSPTSEDSAVYYCTTGIITVIATRDDYWGQGTTLTVSS
VL: QIVLTQSPAIMSASPGEKVTLTCSASSSVSSSYLYWYQQKPGSSPKLWIYSTSNLASGVPARFSGSGSGTSYSLTVSSMEAEDAASYFCHQWSSYPFTFGSGTKLEIK
notes: Mouse mAb from hybridoma culture
B2: 1H1G4D9 (antibody, V domains shown)
VH: EGQLQQSGAELVKPGASVILSCTASGFNIKDTYIHWLNQRPEQGLEWIGRIEPANGNTKYDPTFQGKATITADTSSNTAYLQLTSLTSEDTAVYYCSRGGIYYYGSHWYFDVWGAGTLVTVSS
VL: DVLMTQTPLSLPVSLGDQASISCRSSQNIVYSDGDTYLEWYLQKPGQSPKLLIFKVSNRFSGVPDRFSGSGSGTDFTLKISRVEAEDLGVYYCFQGSHVPFTFGSGTKLEIK
notes: as for B1
B3: 30A6B2D9 (antibody, V domains shown)
VH: EGQLQQSGAGLVKPGASVNLSCTASGFNIKDTYIHWMKQRPEQGLEWIGRIAPTNGNTKYDPTFQGKATITADSSSNTAYLQVSSLTSEDTAVYYCSRGGIYYYGSHWYFDVWGAGTTVTVSS
VL: SVLMTQTPLSLPVSLGDQASISCRSSQNIVYSDGDTYLEWYLQKPGQSPKLLIFKVSNRFFGVPDRFSGSGSGTDFTLKINRVEAEDLGVYYCFQGSHVPFTFGSGTKLEIK
notes: as for B1
B4: 25G1F9F8 (antibody, V domains shown)
VH: EGQLQQSGAELVKPGASVNLSCTASGFNIKDTYIHWVKQRPDQGLEWIGRIAPTNGNAKFHPTFQGKATITADTSSNTAYLQLSSLTSEDTAVYYCTRGGIYYYGTHWYFDVWGAGTTVTVSS
VL: DVLMNQTPLSLPVSLGDQASISCRSSQNIVYSDGNTYLEWYLQKPGQSPKLLIFQVSNRFSGVPDRFSGSGSGTDFTLKISRVEAEDLGFYYCFQGSHVPFTFGSGTKLEIK
notes: as for B1
B5: 53C1_VH-VL.M1 (antibody, human IgG1, kappa, N297A, V domains shown)
VH: QVQLQQSGNELARPGASVRLSCKASGYIFTGYGITWVRQRPGQGLEWIGEIFPRRVNTYYSEKFKGRATLTADISSSTAYMELRSLTSEDSAVYFCARDYDPYFALDYWGQGTSVTVSS
VL: DIVMTQSHKFMSTSVGDRVSITCRASQDVSTAVDWYQQKPGQSPKLLIYSASYRYTGVPDRFTGSGSGTAFTFTISGEQAEDLAVYYCQQHYSIPFTFGGGTKLEIKR
notes: Chimeric mutant, VL K24R in the entry; human IgG1 effector-less Fc, kappa
B6: 53C1_VH.M1-VL (antibody, human IgG1, kappa, N297A, V domains shown)
VH: QVQLQQSGNELARPGASVRLSCKASGYIFTGYGITWVRQRPGQGLEWIGEIFPRRVSTYYSEKFKGRATLTADISSSTAYMELRSLTSEDSAVYFCARDYDPYFALDYWGQGTSVTVSS
VL: DIVMTQSHKFMSTSVGDRVSITCKASQDVSTAVDWYQQKPGQSPKLLIYSASYRYTGVPDRFTGSGSGTAFTFTISGEQAEDLAVYYCQQHYSIPFTFGGGTKLEIKR
notes: Chimeric mutant, VH N57S in the entry; human IgG1 effector-less Fc, kappa
B7: 53C1_VH.M2-VL (antibody, human IgG1, kappa, N297A, V domains shown)
VH: QVQLQQSGNELARPGASVRLSCKASGYIFTGYGITWVRQRPGQGLEWIGEIFPRRVATYYSEKFKGRATLTADISSSTAYMELRSLTSEDSAVYFCARDYDPYFALDYWGQGTSVTVSS
VL: DIVMTQSHKFMSTSVGDRVSITCKASQDVSTAVDWYQQKPGQSPKLLIYSASYRYTGVPDRFTGSGSGTAFTFTISGEQAEDLAVYYCQQHYSIPFTFGGGTKLEIKR
notes: Chimeric mutant, VH N57A in the entry; human IgG1 effector-less Fc, kappa
B8: 53C1_VH.M3-VL.M1 (antibody, human IgG1, kappa, N297A, V domains shown)
VH: QVQLQQSGNELARPGASVRLSCKASGYIFTGYGITWVRQRPGQGLEWIGEIFPRRVQTYYSEKFKGRATLTADISSSTAYMELRSLTSEDSAVYFCARDYDPYFALDYWGQGTSVTVSS
VL: DIVMTQSHKFMSTSVGDRVSITCRASQDVSTAVDWYQQKPGQSPKLLIYSASYRYTGVPDRFTGSGSGTAFTFTISGEQAEDLAVYYCQQHYSIPFTFGGGTKLEIKR
notes: Chimeric mutant (VH N57Q, VL K24R in the entries); human IgG1 effector-less Fc, kappa
B9: 53C1_VH.M2-VL.M1 (antibody, human IgG1, kappa, N297A, V domains shown)
VH: QVQLQQSGNELARPGASVRLSCKASGYIFTGYGITWVRQRPGQGLEWIGEIFPRRVATYYSEKFKGRATLTADISSSTAYMELRSLTSEDSAVYFCARDYDPYFALDYWGQGTSVTVSS
VL: DIVMTQSHKFMSTSVGDRVSITCRASQDVSTAVDWYQQKPGQSPKLLIYSASYRYTGVPDRFTGSGSGTAFTFTISGEQAEDLAVYYCQQHYSIPFTFGGGTKLEIKR
notes: Chimeric mutant (VH N57A, VL K24R in the entries); human IgG1 effector-less Fc, kappa
B10: 53C1_VH.M1-VL.M1 (antibody, human IgG1, kappa, N297A, V domains shown)
VH: QVQLQQSGNELARPGASVRLSCKASGYIFTGYGITWVRQRPGQGLEWIGEIFPRRVSTYYSEKFKGRATLTADISSSTAYMELRSLTSEDSAVYFCARDYDPYFALDYWGQGTSVTVSS
VL: DIVMTQSHKFMSTSVGDRVSITCRASQDVSTAVDWYQQKPGQSPKLLIYSASYRYTGVPDRFTGSGSGTAFTFTISGEQAEDLAVYYCQQHYSIPFTFGGGTKLEIKR
notes: Chimeric mutant (VH N57S, VL K24R in the entries); human IgG1 effector-less Fc, kappa
B11: 53C1_VH.M3-VL (antibody, human IgG1, kappa, N297A, V domains shown)
VH: QVQLQQSGNELARPGASVRLSCKASGYIFTGYGITWVRQRPGQGLEWIGEIFPRRVQTYYSEKFKGRATLTADISSSTAYMELRSLTSEDSAVYFCARDYDPYFALDYWGQGTSVTVSS
VL: DIVMTQSHKFMSTSVGDRVSITCKASQDVSTAVDWYQQKPGQSPKLLIYSASYRYTGVPDRFTGSGSGTAFTFTISGEQAEDLAVYYCQQHYSIPFTFGGGTKLEIKR
notes: Chimeric mutant, VH N57Q in the entry; human IgG1 effector-less Fc, kappa
B12: 25B6E5D8 (antibody, V domains shown)
VH: QFQLQQSGAELVRPGSSVKISCKASGYEFSSNWMNWVKQRPGQSLEWIGQIWPGDGDTNYNGKFRGKATLTSDKSSSTAYMQLNSLTSEDSAVYFCARGRASFYFDYWGQGTALTVSS
VL: DIVLTQSPASLAVSLGQRATISCRASESVDDYGNSFMHWYQQKPGQPPKLLIYRASNLESGIPVRFSGSGSRTDFTLTINPVEADDVATYYCQQSNEDPHTFGGGTKLEIK
notes: as for B1
B13: 29A8_VH-VL.M1 (antibody, human IgG1, kappa, N297A, V domains shown)
VH: DVQLQGSGPGLVKPSQSLSLTCTVTGYSITSDFAWDWIRQFPGNKLEWMGHIRFSGTTSYNPSLKSRISITRDTSKNQFFLQLNSVTSEDTATYYCARSTLITKGFFDYWGQGTTLTVSS
VL: DIVMTQSHKFMSTSVGGRVSITCRASQDVSPAVAWYQQKPGQSPKLLIYWASTRHTGVPDRFTGSGSGTDFTLTISSVQTEDLALYYCQQHYSTPWTFGGGTKLEIKR
notes: human IgG1 effector-less Fc, kappa
B14: 30A7B5D9 (antibody, V domains shown)
VH: KVQLQQSGAELVKPGTSVKLSCKASGYTFTEYIIYWIKQRSGQGLEWIGWFYPGTGSIKYNEKFKDKATLTADKSSSTVFMELSRLTSEDSAVYFCARHEEGNLWFAYWGQGTLVTVSA
VL: QIVLTQSPALMSASPGERVTMTCSASSDVSYMYWYQQKPRSSPKPWIYLTSNLASGVPARFSGSGSGTSYSLTISSMEAEDAATYYCQQWTGNPLTFGAGTKLELK
notes: as for B1
B15: 29A8_VH2-VL1.M1 (antibody, human IgG1, kappa, N297A, V domains shown)
VH: EVQLQESGPGLVKPSETLSLTCTVSGYSITSDFAWDWIRQFPGKGLEWMGHIRFSGTTSYNPSLKSRITISVDTSKNQFSLKLSSVTAADTAVYYCARSTLITKGFFDYWGQGTLVTVSS
VL: DIQMTQSPSSLSASVGDRVTITCRASQDVSPAVAWYQQKPGKAPKLLIYWASTRHTGVPSRFSGSGSGTDFTLTISSLQPEDFATYYCQQHYSTPWTFGQGTKVEIKR
notes: Humanized, hIgG1 effector-less Fc, kappa; see recheck on K24R in the .M1 light chain
B16: 29A8_VH3-VL1.M1 (antibody, human IgG1, kappa, N297A, V domains shown)
VH: EVQLQESGPGLVKPSETLSLTCTVSGYSITSDFAWDWIRQFPGKGLEWMGHIRFSGTTSYNPSLKSRITISVDTSKNQFFLKLSSVTAADTATYYCARSTLITKGFFDYWGQGTLLTVSS
VL: DIQMTQSPSSLSASVGDRVTITCRASQDVSPAVAWYQQKPGKAPKLLIYWASTRHTGVPSRFSGSGSGTDFTLTISSLQPEDFATYYCQQHYSTPWTFGQGTKVEIKR
notes: as for B15

Experiments:
[1] = target: T1, human PD-L1 expressed on CHO-K1 cells (Genscript, Cat #M00543) (human, UniProt Q9NZQ7 19-290); assay: FACS competition vs biotin-PD-1-Fc on CHO-K1/human PD-L1 cells
T1 construct: also called PD-L1 cell line
Procedure: A series of diluted mouse mAbs (concentration starting from 900 nM, 3 fold dilution, 50 μl per well) were added afterwards. The mixture was incubated at 4° C. for 30 minutes, washed twice with wash buffer, followed by the addition of PEcy5/streptavidin (1 μg/ml, 150 μl/well). The plates were again incubated at 4° C. for 30 minutes before the cells in each well were analyzed by FACSCalibur (BD Bioscience, San Jose, Calif.) and Flowjo software.

[2] = target: T1, human PD-L1 expressed on CHO-K1 cells …; assay: FACS, CHO-K1/human PD-L1 cells
Procedure: PD-L1 stable cell line binding activity assessment of 12 mouse mAbs was carried out using FACS. CHO-K1 cells expressing human PD-L1 (Genscript, Cat #M00543) were dissociated from adherent culture flasks and mixed with varying concentrations of antibodies. The antibody and cells were incubated for 30 minutes at room temperature, washed three times with FACS buffer (PBS containing 1% BSA). PE-labeled goat anti-mouse IgG (minimal x-reactivity) secondary antibody (BioLegend, Cat #405307) was added and incubated at room temperature for 15 minutes. Cells were washed again with FACS buffer and analyzed by FACSCalibur (BD Bioscience, San Jose, Calif.) and Flowjo software. Data were analyzed with Prism 6 (GraphPad Software, San Diego, Calif.) using non-linear regression, and EC₅₀ values were calculated (FIGS. 2A-2L and Table 3).

[3] = target: T2, His-tagged PD-L1 ECD protein (ACROBiosystems) (human, UniProt Q9NZQ7 19-238); assay: SPR, supernatant IgG captured, PD-L1-His analyte
T2 construct: Bought protein; also called PD-L1-His; PD-L1/His; not shown: His tag

[4] = target: T2, His-tagged PD-L1 ECD protein …; assay: SPR, supernatant IgG captured, PD-L1-His analyte; remark: listed apart in the source

T2 sequence (Q9NZQ7 19-238): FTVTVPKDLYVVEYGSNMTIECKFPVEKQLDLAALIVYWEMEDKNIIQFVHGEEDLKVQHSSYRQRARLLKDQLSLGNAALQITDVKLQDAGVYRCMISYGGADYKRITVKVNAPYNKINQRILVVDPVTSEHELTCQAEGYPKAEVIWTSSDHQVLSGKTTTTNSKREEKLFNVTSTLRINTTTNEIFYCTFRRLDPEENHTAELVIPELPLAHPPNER
T1 sequence (Q9NZQ7 19-290, one chain of several): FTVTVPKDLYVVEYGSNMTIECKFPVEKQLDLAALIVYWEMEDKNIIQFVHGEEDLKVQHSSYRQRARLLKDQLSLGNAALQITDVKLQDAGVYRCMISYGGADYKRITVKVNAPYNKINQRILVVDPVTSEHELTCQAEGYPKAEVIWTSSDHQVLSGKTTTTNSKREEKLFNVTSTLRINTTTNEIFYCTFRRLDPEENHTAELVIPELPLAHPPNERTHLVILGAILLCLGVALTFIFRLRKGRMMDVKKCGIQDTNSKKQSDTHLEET

Binder | IC50 [1] [nM] | EC50 [2] [nM] | Top (best-fit value) [2] | Kd [3] [nM] | koff [3] [s⁻¹] | kon [3] [M⁻¹ s⁻¹] | also measured
B1 | 3.79 | 9.37 | 1960 |  |  |  | 
B2 | 11.8 | 12.3 | 1760 |  |  |  | 
B3 | 8.35 | 11.1 | 1640 |  |  |  | 
B4 | 13.8 | 18.1 | 1750 |  |  |  | 
B5 |  |  |  | 0.76 | 0.0002 | 260000 | 
B6 |  |  |  | 0.87 | 0.00021 | 240000 | 
B7 |  |  |  | 0.81 | 0.00016 | 200000 | 
B8 |  |  |  | 0.56 | 0.00014 | 260000 | 
B9 |  |  |  | 0.94 | 0.00018 | 200000 | 
B10 |  |  |  | 0.86 | 0.0002 | 240000 | 
B11 |  |  |  | 0.53 | 0.00014 | 260000 | 
B12 |  | 4.5 | 1410 |  |  |  | 
B13 |  |  |  | 0.29 | 0.00015 | 530000 | 
B14 | 4.43 | 6.12 | 1720 |  |  |  | 
B15 |  |  |  |  |  |  | Kd [4]: 1.3 nM; koff [4]: 0.00061 s⁻¹; kon [4]: 470000 M⁻¹ s⁻¹
B16 |  |  |  |  |  |  | Kd [4]: 1.1 nM; koff [4]: 0.00051 s⁻¹; kon [4]: 480000 M⁻¹ s⁻¹
